Where “and” joins values, the source holds several entries; their conditions need not be identical. Equal values may be shown once. Read-outs that look alike come from different tables or passages of the source.
B1: Interferon gamma: type II interferon with anti-viral and anti-scarring activity (protein, UniProt P01579 24-161, looked up)
Interferon gamma: QDPYVKEAENLKKYFNAGHSDVADNGTLFLGILKNWKEESDRKIMQSQIVSFYFKLFKNFKDDQSIQKSVETIKEDMNVKFFNSNKKKRDDFEKLTNYSVTDLNVQRKAIHELIQVMAELSPAAKTGKRKRSQMLFRG

Tests used:
[1] = cited from earlier work; for Isoelectric Point: peptide or protein load molecule, Table 7; for isoelectric point (pI): stated in the description
[2] = Lysostaphin PK study (serum lysostaphin activity assay); format: in vivo; conditions: Sprague Dawley rats, i.v. bolus 12 mg lysostaphin/Kg; lysostaphin 50% of carrier weight
Protocol: Four carriers were selected for PK study. CSPEG106G, HPPEG105G, 20PLPEG1030-DTPA, and 20PLPEG1030-DTPA-SO were loaded with Lysostaphin equivalent to 50% of the carrier weight. These formulations were obtained by dissolving together an appropriate amount of carrier and Lysostaphin in water and incubating for two hours followed by lyophilization. Each lyophilized formulation (including unformulated lysostaphin alone) was dissolved in saline and administered to Sprague Dawley rats (n=4) by slow (at least 1 min) i.v. bolus (12 mg lysostaphin/Kg) via the lateral tail vein. Blood samples were taken from the orbital sinus at 5 m, 15 m, 30 m, 60 m, 120 m, 4 h, 6 h, 24 h, 32 h (30 h), and 48 h and placed in tubes containing Protease Inhibitors (AEBSF, Aprotinin, E-64, EDTA, and Leupeptin). Sera were obtained by centrifugation at 13,000 rpm. All the sera were stored at −80° C. until used in the assay. 100 of serum was used in this assay for each time point. Lysostaphin's activity was measured by activity assay as follow: Stock buffer (10×) was prepared to contain 1M MOPS/10% Tween (by wt.)/5 mM EDTA/pH 7.3. The final reaction mixtures (2000) in black 96-well plate were prepared to contain 5 μg substrate, 100 mM MOPS, 1% Tween20, 0.5 mM EDTA, pH 7.3, and 100 of serum samples. The samples were added last and after addition the wells were mixed and bubbles in the solution was removed using pipette tip wet with ethanol. Fluorescence (Ex485 nm/Em535 nm) increase was monitored for two hours using Chameleon 96-well microplate fluorometer (Bioscan) every 7.5 minutes for 2 hours. The substrate gave fluorescence product when lysostaphin proteolytically cleaved it.

[3] = rat, in vivo, 10 mg/kg
[4] = tested on: adenoviral infection; conditions: cited from earlier work
[5] = tested on: bacteria; conditions: cited from earlier work

Molecule | Isoelectric Point [1] | isoelectric point (pI) [1] | other results
Lysostaphin: 25-kDa peptidase produced by Staphylococcus simulans, cleaves glycine-glycine bond of Staphylococcus aureus cell wall cross-bridge | 9.56 | 9-10 | isoelectric point (pI) ([1]; listed as lysostaphin): 9.56; AUC0 to last [2]: 64.2 hr (μg/ml); AUC0 to ∞ [2]: 67 hr (μg/ml); C0 [2]: 301000 ng/mL; Mean residence time [2]: 0.984 h; Terminal t1/2 [2]: 1.53 h
Fibroblast growth factor | – | 8.0-9.0 and 9.6 | –
H-RRRPRPPYLPRPRPPPFFPPRLPPRIPPGFPPRFPPRFP-OH [PR39] | 9.96 | – | level at 24 h [3]: 370 ng/mL; level at 48 h [3]: 30 ng/mL
GLP1: peptide load molecule with isoelectric point 5.4 used in Table 7 | 5.4 | – | –
Vascular endothelial growth factor | – | 8.0-9.5 | –
ACYCRIPACI-AGERRYGTCI-YQGRLWAFCC [HNP-1] | – | – | reduction of adenoviral infection [4]: more than 95%
Heparin-binding EGF: EGF-related growth factor that signals through the EGF receptor and binds heparin | 8.56 | – | –
erythropoietin without sialic acid: erythropoietin without sialic acid, listed as load molecule | – | 8.5 | –
Nerve growth factor: growth factor listed as basic protein load molecule | – | 8.5-9.5 | –
(klaklak)2: synthetic 14 amino acid D-peptide, programmed cell death-inducing sequence (KLAKLAKKLAKLAK; D-amino acids, C-terminal amide) | – | – | concentration that kills bacteria relative to that required to kill eukaryotic cells [5]: 1%
platelet derived growth factor | – | 8.5-10 | –
B1 | – | 8.5-9.5 | –

Source: patent USRE50618E1, “Anionic-core composition for delivery of therapeutic agents, and methods of making and using the same” (PharmaIN Corporation, priority 2009, dated 2025)
